Measurements reported in patent publication US20140072983A1.

Experiments:
[1] = biological target: biotin-CCR4 peptide conjugate (human); experiment: ECL (MSD) bridging assay, biotin-CCR4 peptide on a streptavidin plate, His-CD16a detection; 0% PHS (assay buffer)
[2] = biological target: biotin-CCR4 peptide conjugate (human); experiment: ECL (MSD) bridging assay, biotin-CCR4 peptide on a streptavidin plate, His-CD16a detection; 20% pooled human serum
[3] = biological target: biotin-CCR4 peptide conjugate (human); experiment: ECL (MSD) bridging assay, biotin-CCR4 peptide on a streptavidin plate, His-CD16a detection; 5% pooled human serum

Measured: EC50 (read off the curve)

biotin-CCR4 peptide conjugate (human), sequence (peptide, as listed by the source): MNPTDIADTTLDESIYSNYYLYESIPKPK

KW-0761 (antibody)
0.4 µg/mL: all assays above
